Measurements: article doi:10.1101/2021.07.21.452842

Molecular target: GST-BRCA1 (tandem BRCT) M1775R (UniProt P38398)
Assay: pull-down

B1: His-GIV-CT (aa 1660-1870) (domain or fragment)
chain: SETLESRHHKIKTGSPGSEVVTLQQFLEESNKLTSVQIKSSSQENLLDEVMKSLSVSSDFLGKDKPVSCGLARSVSGKTPGDFYDRRTTKPEFLRPGPRKTEDTYFISSAGKPTPGTQGKIKLVKESSLSRQSKDSNPYATLPRASSVISTAEGTTRRTSIHDFLTKDSRLPISVDSPPAAADSNTTAASNVDKVQESRNSKSRSREQQSS
With B1 the fold change of binding against BRCA1 (tandem BRCT) WT was 3 to 5 fold.
